From paper PMC9472817, “Structural and functional characterisation of a stable, broad-specificity multimeric sialidase from the oral pathogen Tannerella forsythia” (Biochemical Journal, 2022)

Biological target: NanH sialidase of Tannerella forsythia (wild type) (Tannerella forsythia 92A.2)
Test: SEC-MALS; NanH at 0.5 and 3.0 mg/ml on Superdex S200 10/300 in 50 mM sodium phosphate, 200 mM NaCl pH 7.4, ~20°C; self-association

## NanH sialidase of Tannerella forsythia (wild type) (enzyme)
  percent of the protein as dimer: 90%
  stoichiometry N: 2
